Laboratory results taken from patent publication US20190282673A1, “STAPHTAME ACTIVITY ON BIOFILMS” (priority 2016, published 2019).
Where “and” joins values, the source holds several entries; their conditions need not be identical. Equal entries are not always repeated.

Experiments:
[1] = test system: S. epidermidis B9470 biofilms on catheters; experiment: Preformed biofilms on catheters, safranin staining and SEM; type: cell-based, Staphylococcus epidermidis; conditions: 18 hrs; P128 8 μg/mL (1×MIC); vancomycin 30 μg/mL (30×MIC)
Method: In order to simulate the in vivo conditions for biofilm formation in device associated infections, S. epidermidis B9470 was allowed to form biofilms on the surface of catheters. An overnight-grown culture was diluted 1:40 in TSB containing 4% sodium chloride. Catheter (JMS Infusion set) pieces of 1-2 cm size were cut, slit into two halves and added to the culture. The cultures with catheter pieces were incubated at 37° C. with shaking at 100 rpm for 42 h. Post incubation, the catheters were removed and rinsed twice in PBS to remove the adhering planktonic cells. The biofilms on catheters were challenged with 8 μg/mL of P128 or 30 μg/mL of vancomycin by transferring the catheter pieces into tubes containing the drugs. The tubes were incubated at 37° C. under static conditions for 18 hrs. The catheters were then removed from the tubes, rinsed once in PBS, and immersed in 0.1% safranin [a dye that stains cell wall of bacteria] for 5 min. The stained catheters were washed once in PBS and allowed to dry. After drying, samples were fixed on aluminum stubs with double sided carbon adhesive tape, coated with 5-7 nm thickness gold using a sputter-coating system (Quorum Technologies; Q150T) and examined by SEM (Carl Zeiss. Neon 40) for the presence of biofilm structures.

S. epidermidis = experiment: MIC and checkerboard synergy (broth microdilution) on planktonic cells; type: cell-based, Staphylococcus epidermidis
Method: Bacterial cultures at a final cell number of 5×10^5 CFU/mL was added to wells of 96-well microtiter plates (precoated with 0.5% BSA), containing two-fold dilutions of P128 and the second drug in cation adjusted Mueller Hinton Broth (CAMHB). The plates were incubated at 37° C. for 24 h and the individual MICs and the combination MICs were read. The fractional inhibitory concentration index (FICI) was determined using the following equation: FICI=(MIC of drug A in the combination/MIC of drug A alone)+(MIC of drug B in the combination/MIC of drug B alone). The combination was considered to be synergistic when the FICI was ≤0.5; additive when FICI was 0.5-1.0; indifferent when FICI was 1-4 and antagonistic when FICI≥4.
S. epidermidis culture at a final cell number of 5×10^5 CFU/mL was added to wells of 96-well microtiter plates (precoated with 0.5% BSA), containing two-fold dilutions of P128 and either Daptomycin or Oxacillin in cation adjusted Mueller Hinton Broth (CAMHB). CAMHB was supplemented with 50 µg/mL Ca^++ for daptomycin assay. The plates were incubated at 37° C. for 24 h and the individual MICs and the combination MICs were read. The fractional inhibitory concentration index (FICI) was determined using the following equation: FICI=(MIC of drug A in the combination/MIC of drug A alone)+(MIC of drug B in the combination/MIC of drug B alone). The combination was considered to be synergistic when the FICI was ≤0.5; additive when FICI was between 0.5-1.0; indifferent when FICI was between 1-4 and antagonistic when FICI was ≥4. The experiments were performed in triplicate and repeated twice.

S. aureus BK1 biofilms = experiment: Scanning electron microscopy of treated biofilms in microtitre plates; type: cell-based, Staphylococcus aureus; conditions: Gentamycin 50 μg/mL; P128 12.5 μg/mL (lowest concentration tested)
Method: MRSA strain BK1 or MW2 was used for studying biofilm eradication activity of P128 by SEM. For this, biofilms formed in microtitre plates or on the surface of catheters were treated with increasing concentrations of P128 or antibiotics and subjected to SEM. S. aureus BK1 or MW2 was revived on blood agar plates and the culture was grown overnight in TSB supplemented with 20% glucose. The overnight-grown culture was diluted 1:50 in TSB with 2% glucose to achieve OD600=˜0.1. 200 μL of the diluted culture was aliquoted into each well of the 96 well plate and incubated at 37° C. under static conditions for 18 h. After incubation the contents were aspirated, washed twice with 200 μL of PBS, and 100 μL of media+100 μL of drug were added to each well and incubated again at 37° C. for 18 h. The contents were aspirated, washed with 200 μL of PBS and allowed to dry at 37° C. for 15 min. The individual wells were cut out and biofilms visualized by SEM.

B1: P128: anti-staphylococcal chimeric protein: phage tail associated muralytic enzyme (TAME) cell wall-degrading region plus staphylococcus-specific binding region; SEQ ID NO: 1 (protein)
chain: MSLDSLKKYNGKLPKHDPSFVQPGNRHYKYQCTWYAYNRRGQLGIPVPLWGDAADWIGGAKGAGYGVGRTPKQGACVIWQRGVQGGSPQYGHVAFVEKVLDGGKKIFISEHNYATPNGYGTRTIDMSSAIGKNAQFIYDKKLETPNTGWKTNKYGTLYKSESASFTPNTDIITRTTGPFRSMPQSGVLKAGQTIHYDEVMKQDGHVWVGYTGNSGQRIYLPVRTWNKSTNTLGVLWGTIK
modifications: P128 chimera
**Q.** What does the source list for B1?
**A.** Effect on catheter biofilm (safranin/SEM) [1]: eradication of the biofilm; MIC (drug alone) (S. epidermidis; S. epidermidis ATCC 12228): 4 µg/mL; MIC (drug alone) (S. epidermidis; S. epidermidis B9467): 32 µg/mL; MIC (drug alone) (S. epidermidis; S. epidermidis B9468): 2 µg/mL; MIC (drug alone) (S. epidermidis; S. epidermidis B9470): 8 µg/mL; MIC (drug alone) (S. epidermidis; S. epidermidis B9472): 16 µg/mL and 8 µg/mL; MIC (drug alone) (S. epidermidis; S. epidermidis B9473): 16 µg/mL; MIC over the strains (S. epidermidis; S. epidermidis strains of Tables 7 and 8): 2 to 32 µg/mL; Effect on biofilm by SEM (S. aureus BK1 biofilms): destroyed the biofilm structure and lysed the bacterial cells completely
